Test results published in US20030171273, “Novel transcription factor, BP1” (published 2003).

Target: beta-galactosidase (UniProt P00722 P00722:2-1024)
Assay: EMSA; data not shown; negative control protein
Conditions: tags: pure protein, chain copies: 4, label: 32P
Protocol: 11:1475-1489). Protein extracts from lysogens were prepared as described (see, for example, Cowell, I. G. and H. C. Hurst. 199. Cloning transcription factors from a cDNA expression library, p.120-122. In D. S. Latchman (ed.), Transcription factors: a practical approach. IRL Press, New York). Competitors were pre-incubated with nuclear extract for 20 minutes prior to addition of the probe. Oligonucleotides sequences of probes and competitors for EMSA analyses are shown below.
To verify that the cDNA encoded a protein with the expected binding specificities of BP1, namely, the ability to bind to Silencers I and II upstream of the β-globin gene and to a sequence −530 bp upstream of the δ-globin gene (see, for example, Berg, P. E., S. Abhyankar, and M. Chase. 1994. The high mobility group protein HMG-I(Y) binds to a silencer DNA sequence upstream of the human β-globin gene. Blood 84 Suppl 1:262a), an EMSA competition assay was performed. The putative BP1 protein, fused to β-galactosidase, was expressed from a λ lysogen, as described above. This fusion protein was partially purified and incubated with the Silencer II probe used for screening the library, resulting in a single shifted band, indicated by the arrow (FIG. 2, lane 1). The band at the top marks the position of the wells, and the band at the bottom contains the unshifted probe. […]

Sequence of beta-galactosidase (P00722 2-1024, one chain of several): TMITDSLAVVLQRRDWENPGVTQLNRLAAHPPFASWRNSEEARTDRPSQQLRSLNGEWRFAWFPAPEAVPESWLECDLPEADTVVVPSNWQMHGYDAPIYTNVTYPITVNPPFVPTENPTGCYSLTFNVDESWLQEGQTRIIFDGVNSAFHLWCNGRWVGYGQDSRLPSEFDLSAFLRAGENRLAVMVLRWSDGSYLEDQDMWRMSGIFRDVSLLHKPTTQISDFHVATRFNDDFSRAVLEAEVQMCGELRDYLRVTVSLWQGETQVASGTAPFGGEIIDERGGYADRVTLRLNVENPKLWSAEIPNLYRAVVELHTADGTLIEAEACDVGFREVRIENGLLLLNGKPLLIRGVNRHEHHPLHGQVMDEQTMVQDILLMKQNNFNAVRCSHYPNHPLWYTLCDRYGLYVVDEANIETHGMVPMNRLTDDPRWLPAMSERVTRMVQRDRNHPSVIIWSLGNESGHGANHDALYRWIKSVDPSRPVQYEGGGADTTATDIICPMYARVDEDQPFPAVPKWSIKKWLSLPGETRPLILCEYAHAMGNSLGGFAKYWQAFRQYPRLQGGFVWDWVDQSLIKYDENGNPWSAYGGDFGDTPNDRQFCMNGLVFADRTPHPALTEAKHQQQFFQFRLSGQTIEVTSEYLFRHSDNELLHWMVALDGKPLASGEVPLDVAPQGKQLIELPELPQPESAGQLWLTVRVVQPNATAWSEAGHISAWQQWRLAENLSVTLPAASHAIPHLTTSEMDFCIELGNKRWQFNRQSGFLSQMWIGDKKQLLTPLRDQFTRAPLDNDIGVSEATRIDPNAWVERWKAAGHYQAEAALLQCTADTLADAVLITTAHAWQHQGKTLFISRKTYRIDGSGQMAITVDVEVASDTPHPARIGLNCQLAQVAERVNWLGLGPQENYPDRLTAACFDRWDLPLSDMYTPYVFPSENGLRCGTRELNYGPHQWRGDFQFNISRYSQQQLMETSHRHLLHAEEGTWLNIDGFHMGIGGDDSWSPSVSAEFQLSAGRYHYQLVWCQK

B1: -300 beta (Silencer II) (dsDNA)
DNA 1: TTCTTATTTGTGTAATAAGAAAATTGGGAAAACGATCTTCAATATGCTTACCAAGCTG
DNA 2: CAGCTTGGTAAGCATATTGAAGATCGTTTTCCCAATTTTCTTATTACACAAATAAGAA
B1: no binding.
